Data from patent publication US20180194839A1 (Novartis, published 2018).
Residue numbers refer to the chain shown, from its start. Names may count otherwise.

How the values were obtained:
[1] = target: T1, recombinant human IL-17C (R&D Systems Cat#1234IL/CF) (human, UniProt Q9P0M4 19-197); test: ELISA, coated antigen, Ab 1 µg/ml
T1 construct: also called huIL-17C; hu IL-17C
T1 sequence (looked up): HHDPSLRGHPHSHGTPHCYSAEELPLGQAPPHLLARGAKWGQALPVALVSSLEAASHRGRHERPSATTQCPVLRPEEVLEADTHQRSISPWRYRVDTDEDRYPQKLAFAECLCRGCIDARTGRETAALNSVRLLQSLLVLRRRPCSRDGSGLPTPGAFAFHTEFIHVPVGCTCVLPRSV

[2] = target: T2, recombinant human IL-17E (R&D Systems Cat#1258-IL/CF) (human, UniProt Q9H293 33-177); test: ELISA, coated antigen, Ab 1 µg/ml
T2 construct: also called huIL-17E; hu IL-17E
T2 sequence (looked up): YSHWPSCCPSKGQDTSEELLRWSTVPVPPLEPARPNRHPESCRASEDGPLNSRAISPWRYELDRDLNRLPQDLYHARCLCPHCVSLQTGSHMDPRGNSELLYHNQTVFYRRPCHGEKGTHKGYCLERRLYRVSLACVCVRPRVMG

[3] = target: T3, recombinant human IL-17A/F heterodimer (human, UniProt Q16552 24-155; Q96PD4 31-163, limits assumed); test: ELISA, coated antigen, Ab 1 µg/ml
T3 construct: heterodimer of an IL-17A subunit and an IL-17F subunit; also called huIL-17A/F; rhuIL-17A/F
T3 sequence (looked up) 1: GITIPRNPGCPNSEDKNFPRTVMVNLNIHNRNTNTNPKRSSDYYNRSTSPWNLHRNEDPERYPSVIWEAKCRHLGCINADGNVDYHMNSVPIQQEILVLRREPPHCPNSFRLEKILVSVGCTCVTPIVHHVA
T3 sequence (looked up) 2: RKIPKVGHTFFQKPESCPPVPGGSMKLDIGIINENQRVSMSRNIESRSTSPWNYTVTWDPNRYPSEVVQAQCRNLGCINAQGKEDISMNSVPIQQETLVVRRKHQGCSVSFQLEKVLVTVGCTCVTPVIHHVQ

[4] = target: T4, recombinant human IL-17D (R&D Systems Cat#1504IL/CF) (human, UniProt Q8TAD2 18-202, limits assumed); test: ELISA, coated antigen, Ab 1 µg/ml
T4 construct: also called huIL-17D; hu IL-17D
T4 sequence (looked up): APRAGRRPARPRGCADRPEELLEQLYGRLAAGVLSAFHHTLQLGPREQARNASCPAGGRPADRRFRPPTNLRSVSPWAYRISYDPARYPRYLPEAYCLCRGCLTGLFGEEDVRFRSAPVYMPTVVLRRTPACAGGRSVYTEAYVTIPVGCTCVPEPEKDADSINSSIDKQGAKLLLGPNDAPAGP

[5] = target: T5, recombinant mouse IL-17A (SEQ ID NO: 83) (mouse, UniProt Q62386 26-158); test: ELISA, coated antigen, Ab 1 µg/ml
T5 construct: also called mIL-17A; rmIL-17A
T5 sequence: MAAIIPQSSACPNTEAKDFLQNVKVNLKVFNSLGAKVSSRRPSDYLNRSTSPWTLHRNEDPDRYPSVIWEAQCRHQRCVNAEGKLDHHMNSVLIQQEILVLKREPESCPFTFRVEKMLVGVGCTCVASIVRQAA

[6] = target: T6, recombinant human IL-17B (R&D Systems) (human, UniProt Q9UHF5 21-180); test: ELISA, coated antigen, Ab 1 µg/ml
T6 construct: also called huIL-17B; hu IL-17B
T6 sequence (looked up): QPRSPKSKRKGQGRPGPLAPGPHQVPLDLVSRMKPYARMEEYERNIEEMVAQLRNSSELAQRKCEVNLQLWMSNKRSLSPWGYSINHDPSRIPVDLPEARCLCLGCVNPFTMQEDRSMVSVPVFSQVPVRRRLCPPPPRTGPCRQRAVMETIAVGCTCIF

[7] = target: T7, recombinant human IL-17A (SEQ ID NO: 76) (human, UniProt Q16552 24-155, limits assumed); test: ELISA, coated antigen, Ab 1 µg/ml
T7 construct: homodimer; also called huIL-17A; rhuIL-17A
T7 sequence: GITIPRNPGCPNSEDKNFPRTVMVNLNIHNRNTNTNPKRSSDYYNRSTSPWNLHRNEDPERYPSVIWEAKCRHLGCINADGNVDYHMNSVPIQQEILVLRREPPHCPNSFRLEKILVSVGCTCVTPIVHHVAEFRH

[8] = target: T8, recombinant mouse IL-17A/F (R&D Systems Cat#5390-IL) (mouse, UniProt Q62386 26-158; Q7TNI7 29-161, limits assumed); test: ELISA, coated antigen, Ab 1 µg/ml
T8 construct: bought heterodimer; also called mIL-17A/F; rmIL-17A/F
T8 sequence (looked up) 1: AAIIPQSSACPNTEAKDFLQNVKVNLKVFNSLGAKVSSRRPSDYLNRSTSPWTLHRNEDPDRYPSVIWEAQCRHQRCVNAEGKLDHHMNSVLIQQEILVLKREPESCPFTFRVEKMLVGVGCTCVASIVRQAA
T8 sequence (looked up) 2: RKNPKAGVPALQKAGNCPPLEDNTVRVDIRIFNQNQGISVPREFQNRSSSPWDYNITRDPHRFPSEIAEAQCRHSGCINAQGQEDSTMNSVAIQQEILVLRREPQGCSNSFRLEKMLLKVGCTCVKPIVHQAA

[9] = target: T7, recombinant human IL-17A (SEQ ID NO: 76); test: cell-based or functional assay
[10] = target: T3, recombinant human IL-17A/F heterodimer; test: cell-based or functional assay
[11] = target: T9, recombinant human IL-17F (SEQ ID NO: 77) (human, UniProt Q96PD4 31-163); test: cell-based or functional assay
T9 sequence: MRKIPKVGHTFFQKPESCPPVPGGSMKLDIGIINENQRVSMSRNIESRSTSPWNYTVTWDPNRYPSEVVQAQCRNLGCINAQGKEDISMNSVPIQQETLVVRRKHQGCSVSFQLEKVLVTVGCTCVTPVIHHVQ

[12] = target: T7, recombinant human IL-17A (SEQ ID NO: 76); test: cell-based or functional assay; remark: listed apart in the source

B1: XAB4 (antibody, human IgG1, kappa, V domains shown)
VH: EVQLVESGGDLVQPGGSLRLSCAASGFTFSSYWMSWVRQAPGKGLEWVANIKQDGSEKYYVDSVKGRFTISRDNAKNSLYLQMNSLRAEDTAVYYCARDRGSLYYWGQGTLVTVSS
VL: AIQLTQSPSSLSASVGDRVTITCRPSQGINWELAWYQQKPGKAPKLLIYDASSLEQGVPSRFSGSGSGTDFTLTISSLQPEDFATYYCQQFNSYPLTFGGGTKVEIKR
notes: also called MB435 N56Q
O.D. [1]: 0.036 O.D.
O.D. [2]: 0.035 O.D.
O.D. [3]: 2.14 O.D.
O.D. [4]: 0.034 O.D.
O.D. [5]: 1.58 O.D.
O.D. [6]: 0.034 O.D.
O.D. [7]: 2.47 O.D.
O.D. [8]: 2.26 O.D.
IC50, huIL-6 secretion by BJ cells; stimulus rhuIL-17A (0.5 nM) [9]: 0.55 nM
IC50, huIL-6 secretion by BJ cells; stimulus rhuIL-17A/F (300 pM) + rhuTNF-α (6 pM) [10]: 0.17 nM
IC50, huIL-6 secretion by BJ cells; stimulus rhuIL-17A/F (3 nM) [10]: 1.68 nM
IC50, huIL-6 secretion by BJ cells; stimulus rhuIL-17F (10 nM) + rhuTNF-α (6 pM) [11]: > 3 µM
IC50, huIL-6 secretion by BJ cells; stimulus rhuIL-17F (30 nM) [11]: > 3000 nM
IC50, huIL-6 secretion by BJ cells; stimulus rhuIL-17A (1 nM) [12]: 0.63 nM

B2: XAB1 (antibody, human IgG1, kappa, V domains shown)
VH: B1 VH
VL: B1 VL with N30I, W31S, E32A, Q56N
notes: human IgG1/kappa monoclonal antibody; also called parental XAB1; XAB1 IgG
O.D. [1]: 0.032 O.D.
O.D. [2]: 0.033 O.D.
O.D. [3]: 1.22 O.D.
O.D. [4]: 0.031 O.D.
O.D. [5]: 1.44 O.D.
O.D. [6]: 0.049 O.D.
O.D. [7]: 1.3 O.D.
O.D. [8]: 1.76 O.D.
IC50, huIL-6 secretion by BJ cells; stimulus rhuIL-17A (0.5 nM) [9]: 4.97 nM
IC50, huIL-6 secretion by BJ cells; stimulus rhuIL-17A/F (300 pM) + rhuTNF-α (6 pM) [10]: 3.83 nM
IC50, huIL-6 secretion by BJ cells; stimulus rhuIL-17F (10 nM) + rhuTNF-α (6 pM) [11]: > 3 µM
IC50, huIL-6 secretion by BJ cells; stimulus rhuIL-17A (30 pM) + rhuTNF-α (6 pM) [12]: 0.47 nM
